Laboratory results reported in patent US20230192839A1 (published 2023).
Changes are numbered by the printed parent chain.

B1: P01_H04 scFv-Fc fusion (scFv, V domains shown)
VH: QVQLVESGGGLVQAGGSLRLSCAASRRSSRSWAMHWVRQAPGKGLEWVAVISYDGRLKYYADSVKGRFTISRDNAEYLVYLQMNSLRAEDTAVYYCAADMDDMLSYYNSFDIWGQGTLVTVSS
VL: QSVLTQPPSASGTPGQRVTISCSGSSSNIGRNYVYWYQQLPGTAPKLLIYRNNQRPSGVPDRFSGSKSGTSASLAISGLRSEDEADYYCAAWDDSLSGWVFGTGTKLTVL
notes: Tested as scFv-Fc fusion
B2: P02_E08 scFv-Fc fusion (scFv, V domains shown)
VH: QVQLVESGGGLVQAGGSLRLSCAASRRSSRSWAMHWVRQAPGKGLEWVAVISYDGRLKYYADSVKGRFTISRDNAEYLVYLQMNSLRAEDTAVYYCAASDYDGGGLFDLWGQGTLVTVSS
VL: QSVLTQPPSASGTPGQRVTISCSGSNSNIGDNYVHWYQQLPGTAPKLLIYMNNQRPSGVPDRFSGSKSGTSASLAISGLRSEDEADYYCATWDDSLSGVVFGTGTKLTVL
notes: Tested as scFv-Fc fusion
B3: P04_C05 scFv-Fc fusion (scFv, V domains shown)
VH: QVQLVESGGGLVQAGGSLRLSCAASRRSSRSWAMHWVRQAPGKGLEWVAVISYDGRLKYYADSVKGRFTISRDNAEYLVYLQMNSLRAEDTAVYYCAAGLPWTDYWGQGTLVTVSS
VL: QSVLTQPPSASGTPGQRVTISCSGSNSNIGSNYVSWYQQLPGTAPKLLIYSNNQRPSGVPDRFSGSKSGTSASLAISGLRSEDEADYYCAAWDDRLSVVFGTGTKLTVL
notes: Tested as scFv-Fc fusion
B4: P02_D08 scFv-Fc fusion (scFv, V domains shown)
VH: B1 VH with D99E, M100R, D101G, M103G, S105D, Y106G, Y107N, N108V, S109G, F110L
VL: DIQMTQSPSSLSASVGDRVTITCRASQSISKYLNWYQQKPGKAPKLLIYGASTLQSGVPSRFSGSGSGTDFTLTISSLQPEDFATYYCQQSYSSGTFGQGTKVEIK
notes: Tested as scFv-Fc fusion
B5: P02_A10 scFv-Fc fusion (scFv, V domains shown)
VH: B2 VH with S99E, D100S, Y101E, D102W, G103D, G104T, L106G, L109V
VL: B4 VL with S30G, K31S, G50S, A51S, T53N, S93T
notes: Tested as scFv-Fc fusion
B6: P02_C02 scFv-Fc fusion (scFv, V domains shown)
VH: QVQLVESGGGLVQAGGSLRLSCAASRRSSRSWAMHWVRQAPGKGLEWVAVISYDGRLKYYADSVKGRFTISRDNAEYLVYLQMNSLRAEDTAVYYCAAEGGMGLDPWGQGTLVTVSS
VL: B4 VL with S28T, K31S, G50A, T53N, Q55H
notes: Tested as scFv-Fc fusion
B7: P01_B02 scFv-Fc fusion (scFv, V domains shown)
VH: QVQLVESGGGLVQAGGSLRLSCAASRRSSRSWAMHWVRQAPGKGLEWVAVISYDGRLKYYADSVKGRFTISRDNAEYLVYLQMNSLRAEDTAVYYCAAADWYSGGGDALDIWGQGTLVTVSS
VL: B4 VL with S28T, S30Y, K31N, T53N, S91T, G95P
notes: Tested as scFv-Fc fusion
B8: P08_C08 scFv-Fc fusion (scFv, V domains shown)
VH: QVQLVESGGGLVQAGGSLRLSCAASRRSSRSWAMHWVRQAPGKGLEWVAVISYDGRLKYYADSVKGRFTISRDNAEYLVYLQMNSLRAEDTAVYYCAAEGSGSTDGSGAIDVWGQGTLVTVSS
VL: B4 VL with S30G, K31S, G50A, T53S, T96S
notes: Tested as scFv-Fc fusion
B9: P03_G12 scFv-Fc fusion (scFv, V domains shown)
VH: B2 VH with S99D, D100P, Y101T, D102E, G104W, G105S, L106Y, F107L, L109Y
VL: B4 VL with S28G, K31S, T53R, S91G
notes: Tested as scFv-Fc fusion
B10: P16_E06 scFv-Fc fusion (scFv, V domains shown)
VH: QVQLVESGGGLVQAGGSLRLSCAASRRSSRSWAMHWVRQAPGKGLEWVAVISYDGRLKYYADSVKGRFTISRDNAEYLVYLQMNSLRAEDTAVYYCAAEGGDYPGTSDGGLDIWGQGTLVTVSS
VL: B4 VL with K31N, T53S, S94A
notes: Tested as scFv-Fc fusion
B11: P07_C04 scFv-Fc fusion (scFv, V domains shown)
VH: B7 VH with A99E, D100P, W101D, Y102G, S103E, G105T, G106N, D107G, A108G
VL: B4 VL with S28N, K31R, G50S, T53S, S56T, T96A
notes: Tested as scFv-Fc fusion
B12: P03_H04 scFv-Fc fusion (scFv, V domains shown)
VH: B1 VH with M100P, D101H, M103G, L104Y, S105G, Y106G, Y107G, N108P, S109G, I112Y
VL: B2 VL with N26S, D31S, H35Y, M51R, N52S, T91A, S95T, G98A
notes: Tested as scFv-Fc fusion
B13: P04_C09 scFv-Fc fusion (scFv, V domains shown)
VH: QVQLVESGGGLVQAGGSLRLSCAASRRSSRSWAMHWVRQAPGKGLEWVAVISYDGRLKYYADSVKGRFTISRDNAEYLVYLQMNSLRAEDTAVYYCAAEANESDSGGIDVWGQGTLVTVSS
VL: B4 VL with S28T, S30G, K31G, G50A, T53S, S91G, T96A
notes: Tested as scFv-Fc fusion
B14: P01_F05 scFv-Fc fusion (scFv, V domains shown)
VH: B7 VH with A99G, D100P, W101D, Y102R, S103W, G104A, G106Y, L109F, I111V
VL: DIQMTQSPSSLSASVGDRVTITCRASQTINTHLNWYQQKPGKAPKLLIYGASNLQGGVPSRFSGSGSGTDFTLTISSLQPEDFATYYCQQSYSTPLTFGQGTKVEIK
notes: Tested as scFv-Fc fusion
B15: P01_C05 scFv-Fc fusion (scFv, V domains shown)
VH: B10 VH with G100Q, G101W, D102G, Y103T, P104N, G105D, T106G, S107P, L111M, I113Y
VL: B14 VL with N30G, T31S, A51T, G56S, T94S
notes: Tested as scFv-Fc fusion
B16: P02_D09 scFv-Fc fusion (scFv, V domains shown)
VH: QVQLVESGGGLVQAGGSLRLSCAASRRSSRSWAMHWVRQAPGKGLEWVAVISYDGRLKYYADSVKGRFTISRDNAEYLVYLQMNSLRAEDTAVYYCAAEEGDGGFFDYWGQGTLVTVSS
VL: QSVLTQPPSASGTPGQRVTISCSGSSSNIGSNYVNWYQQLPGTAPKLLIYRNNERPSGVPDRFSGSKSGTSASLAISGLRSEDEADYYCAAWDGSLSGRGVFGTGTKLTVL
notes: Tested as scFv-Fc fusion
B17: P02_B03 scFv-Fc fusion (scFv, V domains shown)
VH: QVQLVESGGGLVQAGGSLRLSCAASRRSSRSWAMHWVRQAPGKGLEWVAVISYDGRLKYYADSVKGRFTISRDNAEYLVYLQMNSLRAEDTAVYYCAADQDVGSVGNYYGNGMDVWGQGTLVTVSS
VL: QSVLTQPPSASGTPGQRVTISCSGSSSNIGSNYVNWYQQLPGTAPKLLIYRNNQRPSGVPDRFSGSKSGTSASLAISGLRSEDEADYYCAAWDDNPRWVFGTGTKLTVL
notes: Tested as scFv-Fc fusion

What follows are binders tested against T1, human epidermal growth factor receptor antigen (human, UniProt P00533 25-645, limits assumed) (assay: SPR (Biacore T200), 37 C; KD at 10 uM MTX / KD at 0 uM MTX).
T1 construct: whole entry named; also called EGFR
Procedure: (§1) All binding kinetics analysis was performed on label-free Biacore surface plasmon biosensors (Biacore T200™ from GE Life Sciences) at 37° C. in 10 mM Hepes pH 7.4, 150 mM NaCl, 0.05% Tween-20 (HBST+), with or without 10 µM MTX. The Biacore data were processed in Biacore T200 Evaluation Software, and the data were double-referenced (Myszka, 1999, J Mol Recognit 12(5):279-284) and fit globally to a simple Langmuir with mass transport model to determine the equilibrium dissociation constant, KD, from the ratio of the kinetic rate constants (KD = koff/kₒₙ). In some cases the binding of antigen was very low (or not detectable) in the presence of 10 µM MTX and as a result kinetic rate constants could not be accurately determined. In these cases, a KD (or KD limit) was estimated based on the binding response at the highest analyte concentration tested or based on the typical limit of detection for a Biacore T200.
(§2) The first 4 rounds of panning used biotinylated EGFR antigen captured on streptavidin or neutravidin coated 96-well plates. […] 1536 clones were randomly chosen from the 4th and 5th round of panning against the EGFR antigen and their binding specificity determined by phage ELISA.

Ratio: KD with MTX / KD without MTX	Binder
> 2	B1

These binders were tested against T2, human CD33 antigen (human, UniProt P20138 18-259, limits assumed) (assay: SPR (Biacore T200), 37 C, scFv-Fc, 0 uM MTX).
T2 construct: whole entry named; also called Siglec-3
Procedure: as §1

T2 sequence (P20138 18-259 limits assumed): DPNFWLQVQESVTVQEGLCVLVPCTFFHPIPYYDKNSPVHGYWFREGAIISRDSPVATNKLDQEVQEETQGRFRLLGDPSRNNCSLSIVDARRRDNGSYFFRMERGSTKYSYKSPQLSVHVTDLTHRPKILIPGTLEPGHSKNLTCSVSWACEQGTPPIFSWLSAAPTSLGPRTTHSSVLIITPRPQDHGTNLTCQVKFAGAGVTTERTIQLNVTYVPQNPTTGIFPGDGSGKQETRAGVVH

Kd [nM]	koff [s⁻¹]	kon [M⁻¹ s⁻¹]	Binder
211	0.01	47000	B2
25	0.0021	83000	B3
100	0.0061	61000	B4
523	0.044	84000	B5
213	0.02	92000	B6
19	0.0026	140000	B7
72	0.0045	63000	B8
132	0.0094	71000	B9
92	0.011	120000	B10
31	0.0029	95000	B11
366	0.026	72000	B12
12	0.0018	160000	B13
143	0.01	71000	B14
86	0.0066	76000	B15
456	0.018	40000	B16
170	0.023	140000	B17

These binders were tested against T1, human epidermal growth factor receptor … (assay: SPR (Biacore T200), 37 C, scFv-Fc, 0 uM MTX).
Procedure: as §1, §2

Kd [nM]	koff [s⁻¹]	kon [M⁻¹ s⁻¹]	Binder
889	0.076	85000	B1

The binders below were run against T2, human CD33 antigen (assay: SPR (Biacore T200), 37 C, scFv-Fc, 10 uM MTX).
Procedure: as §1
“*”: For interactions where kₒₙ and koff are reported, the KD was calculated using koff/kₒₙ.

Kd [nM]	koff [s⁻¹]	kon [M⁻¹ s⁻¹]	Binder
298	0.013	45000	B3
705	0.062	88000	B4
221	0.025	110000	B6
1.6	0.0006	390000	B7
547	0.051	94000	B8
1170	0.087	75000	B10
144	0.025	170000	B11
205	0.0089	44000	B13
44.7	0.0045	100000	B15

These binders were tested against T2, human CD33 antigen (assay: SPR (Biacore T200), 37 C; KD at 10 uM MTX / KD at 0 uM MTX).
Procedure: as §1

Ratio: KD with MTX / KD without MTX	Binder
> 3.4	B2
12	B3
7.1	B4
> 17.3	B5
1	B6
0.1	B7
7.6	B8
> 83	B9
12.7	B10
4.7	B11
> 43	B12
17.7	B13
> 92.5	B14
0.5	B15
> 20.4	B16
> 2	B17
